# Laboratory results reported in publication PMC6628648, “Enabling microbial syringol conversion through structure-guided protein engineering” (Proceedings of the National Academy of Sciences of the …, 2019).
# Key:
# [1] = tested on: COc1ccccc1O; assay: purified protein, by the assay type; settings: pH 7.5; 25.0 °C
# [2] = tested on: COc1cccc(OC)c1O; assay: purified protein, by the assay type; settings: pH 7.5; 25.0 °C
substance,measurement,setting,value
GcoA-F169A (Amycolatopsis sp. ATCC 39116; F169A),Km,[1],40 ± 6 µM
same,kcat,[1],11 ± 0.03 s⁻¹
same,kcat/Km,[1],290000 ± 40000 M⁻¹ s⁻¹
same,Km,[2],10 ± 1 µM
same,kcat,[2],5.9 ± 0.01 s⁻¹
same,kcat/Km,[2],600000 ± 90000 M⁻¹ s⁻¹
